Experimental data taken from PMC3305808 (Molecular Microbiology, 2012).

B1: λcIDB-AaTadZ (TadZ of Aggregatibacter actinomycetemcomitans fused to the N-terminal DNA-binding domain of λ cI) (natural protein)
chain: MLLLDQETITADSARTITVVSSRDDIQGEVAQTLRTRGLENIEIVKKDFFTSSDEISFSAEDTVGVIIDITHETNIKTIVERVFSVVPQNVWCCVIGDSDSISLSQKLLDEGILYFNSHTQLSQMVEKIILGVDIPRLRDTVKIAVLSCKGGIGASLISSHIANEIVSSKKIPVLLAQGPNGSQDLDLLFDKKLSGNVIEYAPNLDIFNGGLFELTPAATEKYNFIIYDQPIYNVKKDNFIGFLENYNNFVLVVERKIGSLRLAKQFLDECERIRSTSRKPIRTFVCISDNRLEAAKLMAKNDIETLIGSSIDAIIPYVKNTNTKTVLGINLGRDGKKEINSLMLKVIGAISRSSKPKEKQSLFSSFFTKLIKQ
B2: λcIDB-AaTadZ S156T (natural protein)
chain: MLLLDQETITADSARTITVVSSRDDIQGEVAQTLRTRGLENIEIVKKDFFTSSDEISFSAEDTVGVIIDITHETNIKTIVERVFSVVPQNVWCCVIGDSDSISLSQKLLDEGILYFNSHTQLSQMVEKIILGVDIPRLRDTVKIAVLSCKGGIGATLISSHIANEIVSSKKIPVLLAQGPNGSQDLDLLFDKKLSGNVIEYAPNLDIFNGGLFELTPAATEKYNFIIYDQPIYNVKKDNFIGFLENYNNFVLVVERKIGSLRLAKQFLDECERIRSTSRKPIRTFVCISDNRLEAAKLMAKNDIETLIGSSIDAIIPYVKNTNTKTVLGINLGRDGKKEINSLMLKVIGAISRSSKPKEKQSLFSSFFTKLIKQ
B3: λcIDB-AaTadZ A155K (natural protein)
chain: MLLLDQETITADSARTITVVSSRDDIQGEVAQTLRTRGLENIEIVKKDFFTSSDEISFSAEDTVGVIIDITHETNIKTIVERVFSVVPQNVWCCVIGDSDSISLSQKLLDEGILYFNSHTQLSQMVEKIILGVDIPRLRDTVKIAVLSCKGGIGKSLISSHIANEIVSSKKIPVLLAQGPNGSQDLDLLFDKKLSGNVIEYAPNLDIFNGGLFELTPAATEKYNFIIYDQPIYNVKKDNFIGFLENYNNFVLVVERKIGSLRLAKQFLDECERIRSTSRKPIRTFVCISDNRLEAAKLMAKNDIETLIGSSIDAIIPYVKNTNTKTVLGINLGRDGKKEINSLMLKVIGAISRSSKPKEKQSLFSSFFTKLIKQ
B4: λcIDB-AaTadZ K150A (natural protein)
chain: MLLLDQETITADSARTITVVSSRDDIQGEVAQTLRTRGLENIEIVKKDFFTSSDEISFSAEDTVGVIIDITHETNIKTIVERVFSVVPQNVWCCVIGDSDSISLSQKLLDEGILYFNSHTQLSQMVEKIILGVDIPRLRDTVKIAVLSCAGGIGASLISSHIANEIVSSKKIPVLLAQGPNGSQDLDLLFDKKLSGNVIEYAPNLDIFNGGLFELTPAATEKYNFIIYDQPIYNVKKDNFIGFLENYNNFVLVVERKIGSLRLAKQFLDECERIRSTSRKPIRTFVCISDNRLEAAKLMAKNDIETLIGSSIDAIIPYVKNTNTKTVLGINLGRDGKKEINSLMLKVIGAISRSSKPKEKQSLFSSFFTKLIKQ
B5: λcIDB-AaTadZ S156A (natural protein)
chain: MLLLDQETITADSARTITVVSSRDDIQGEVAQTLRTRGLENIEIVKKDFFTSSDEISFSAEDTVGVIIDITHETNIKTIVERVFSVVPQNVWCCVIGDSDSISLSQKLLDEGILYFNSHTQLSQMVEKIILGVDIPRLRDTVKIAVLSCKGGIGAALISSHIANEIVSSKKIPVLLAQGPNGSQDLDLLFDKKLSGNVIEYAPNLDIFNGGLFELTPAATEKYNFIIYDQPIYNVKKDNFIGFLENYNNFVLVVERKIGSLRLAKQFLDECERIRSTSRKPIRTFVCISDNRLEAAKLMAKNDIETLIGSSIDAIIPYVKNTNTKTVLGINLGRDGKKEINSLMLKVIGAISRSSKPKEKQSLFSSFFTKLIKQ
B6: λcIDB-AaTadZ K150R (natural protein)
chain: MLLLDQETITADSARTITVVSSRDDIQGEVAQTLRTRGLENIEIVKKDFFTSSDEISFSAEDTVGVIIDITHETNIKTIVERVFSVVPQNVWCCVIGDSDSISLSQKLLDEGILYFNSHTQLSQMVEKIILGVDIPRLRDTVKIAVLSCRGGIGASLISSHIANEIVSSKKIPVLLAQGPNGSQDLDLLFDKKLSGNVIEYAPNLDIFNGGLFELTPAATEKYNFIIYDQPIYNVKKDNFIGFLENYNNFVLVVERKIGSLRLAKQFLDECERIRSTSRKPIRTFVCISDNRLEAAKLMAKNDIETLIGSSIDAIIPYVKNTNTKTVLGINLGRDGKKEINSLMLKVIGAISRSSKPKEKQSLFSSFFTKLIKQ

Target: the molecule itself
Assay: λ cI repressor fusion dimerization assay

Row | Protein | % repression of λpR-lacZ
1 | B1 | 60.1%
2 | B2 | 53.7%
3 | B3 | 49.7%
4 | B4 | 60.3%
5 | B5 | 57.6%
6 | B6 | 49%
